Results: PMC3069065
Where no end group is shown, it is not given here. The star is where a group is joined. Biotin = O=C1N[C@H]2[C@H](CS[C@H]2CCCCC(=O)*)N1

Target: human vitamin D nuclear receptor ligand-binding domain, hexahistidine-tagged (6xHis-VDR-LBD) (human)
Test: AlphaScreen or HTRF; 100 nM 6xHis-VDR-LBD on Ni2+-chelate acceptor beads, 20 nM biotinylated TIF2-3 peptide on streptavidin donor beads; increasing concentrations of 1α,25(OH)2D3 or 1α,25(OH)2-3-epi-D3 (1% DMSO); 50 mM MOPS pH 7.4, 50 mM NaF, 50 mM CHAPS, 100 µg/ml BSA

Biotin-QEPVSPKKKENALLRYLLDKDDTKD [human TIF2-3 biotinylated peptide (TIF2 coactivator peptide bearing the 3rd LXXLL motif)]
EC50 of the ligand 1α,25(OH)2-3-epi-D3 for induced recruitment of the peptide: 2.5 nM
EC50 of the ligand 1α,25(OH)2D3 for induced recruitment of the peptide: 1.2 nM
